Results as given in US5928933A, “Process for the enzymatic resolution of N-(alkoxycarbonyl)-4-ketoproline alkyl esters or N-(alkoxycarbonyl)-4-hydroxyproline alkyl esters using Candida antarctica lipase B” (priority 1998, dated 1999).

Assays:
Format in all cases: biochemical
[1] = biological target: T1, Candida antartica lipase fraction B (CALB) (Moesziomyces antarcticus, UniProt P41365); assay: Relative rates of hydrolysis of N-(alkoxycarbonyl)-trans-4-hydroxy-L-proline methyl esters by CALB; settings: for time to complete hydrolysis of the methyl ester / initial reaction rate: 50 mM substrate, 3.0 mg/mL CALB, 25° C.; for time to complete hydrolysis of the methyl ester: 0.100M potassium phosphate pH 7.0; for initial reaction rate: pH 7.0
T1 construct: purchased Boehringer Mannheim CHIRAZYME L-2
T1 sequence (P41365 26-342): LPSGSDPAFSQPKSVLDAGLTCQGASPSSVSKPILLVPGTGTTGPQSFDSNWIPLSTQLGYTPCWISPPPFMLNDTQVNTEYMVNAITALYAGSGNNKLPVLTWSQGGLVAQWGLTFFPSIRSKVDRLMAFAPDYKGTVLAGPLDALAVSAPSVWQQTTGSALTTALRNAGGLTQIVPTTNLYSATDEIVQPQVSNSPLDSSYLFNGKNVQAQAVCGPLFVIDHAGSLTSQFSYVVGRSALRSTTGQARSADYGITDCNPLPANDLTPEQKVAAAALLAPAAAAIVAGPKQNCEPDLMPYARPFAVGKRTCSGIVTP
Protocol: A 2.0 mL aqueous solution containing 50 mM N-(methoxycarbonyl)-trans-4-hydroxy-L-proline methyl ester, or 50 mM N-(ethoxycarbonyl)-trans-4-hydroxy-L-proline methyl ester, or 50 mM N-(tert-butoxycarbonyl)-trans-4-hydroxy-L-proline methyl ester in 0.100M potassium phosphate (pH 7.0) and 3.0 mg/mL of Candida antartica lipase fraction B was mixed at 25° C. The reactions were analyzed by removal of 0.200 mL aliquots at pre-determined times and mixing the sample with an equivalent volume of 0.100M propionic acid (HPLC internal standard) in water, and filtering the resulting solution through a 10K molecular weight cut-off filter to remove the enzyme. The filtrate was then analyzed by high pressure liquid chromatography on a HPX-87H column (Bio-Rad, 30 cm×7.8 mm) to determine the percent conversion of the N-(alkoxycarbonyl)-trans-4-hydroxy-L-proline methyl ester. Complete hydrolysis of the methyl ester of the N-methoxy-, N-ethoxy-, and N-tert-butoxycarbonyl derivatives occurred in 5 h, 2 h, and 6 h, respectively, and the initial reaction rates were 5.7, 18.7, and 3.3 micromoles/h/mg enzyme catalyst, respectively.

[2] = Enzyme screens for resolution of racemic N-(acetyl)-4-keto-D,L-proline methyl ester (Example 7, comparative); settings: 0.100M racemate, 5 h, 5.0 to 30 mg/mL enzyme, 25° C.; for conv. (percent conversion of the racemate): 0.20M sodium succinate pH 6.0; for % ee (enantiomeric excess of the D-isomer): pH 6.0
Protocol: An aqueous solution (1.0 mL) containing 0.100M racemic N-(acetyl)-4-keto-D,L-proline methyl ester in 0.20M sodium succinate (pH 6.0) was mixed with 5.0 to 30 mg/mL of commercial enzyme preparations (listed in the table below) at 25° C. […] The dichloromethane extract was then analyzed by chiral gas chromatography on a Chiraldex G-TA column (Advanced Separation Technologies, Inc., 50 m×0.32 mm ID) to determine the percent conversion of the racemate, and the enantiomeric excess of the N-(acetyl)-4-keto-D-proline methyl ester.

[3] = Enzyme screens for resolution of diastereomeric mixture CHLP(MEMC)/THLP(MEMC) (Example 13); settings: 0.050M each isomer, 5 h, 5.0 to 50 mg/mL enzyme, 25° C.; for conv. (percent conversion of the diastereomeric mixture): 0.100M potassium phosphate pH 7.0; for % de (diastereomeric excess of the cis-L-isomer): pH 7.0
Protocol: (§1) An aqueous solution containing 0.050M N-(methoxycarbonyl)-trans-4-hydroxy-L-proline methyl ester and 0.050M N-(methoxycarbonyl)-cis-4-hydroxy-L-proline methyl ester in 0.100M potassium phosphate (pH 7.0) was mixed with 5.0 to 50 mg/mL of commercial enzyme preparations (listed in the table below) at 25° C. The reactions were analyzed after 5 h by removal of a 0.200 mL sample and mixing with an equivalent volume of 0.100M propionic acid (HPLC internal standard) in water. The resulting solution was filtered through a 10K molecular weight cut-off filter to remove the enzyme and the filtrate analyzed by high pressure liquid chromatography on a HPX-87H column (Bio-Rad, 30 cm×7.8 mm) to determine the percent conversion of the diastereomeric mixture, and the diastereomeric excess of the N-(methoxycarbonyl)-cis-4-hydroxy-L-proline methyl ester.

[4] = Enzyme screens for resolution of diastereomeric mixture CHDP(MEMC)/THLP(MEMC) (Example 9); settings: 0.050M each isomer, 5 h or 24 h, 5.0 to 50 mg/mL enzyme, 25° C.; for conv. (percent conversion of the diastereomeric mixture): 0.100M potassium phosphate pH 7.0; for % de (diastereomeric excess of the D-isomer, CHDP(MEMC)): pH 7.0
Protocol: as §1, with “aqueous solution (1.0 mL) containing 0.050M” for “aqueous solution containing 0.050M”, “and 0.050M N-(methoxycarbonyl)-cis-4-hydroxy-D-proline methyl ester” for “and 0.050M N-(methoxycarbonyl)-cis-4-hydroxy-L-proline methyl ester”, “after 5 h or 24 h by” for “after 5 h by”, “conversion of each isomer of the diastereomeric” for “conversion of the diastereomeric”, “of the N-(methoxycarbonyl)-cis-4-hydroxy-D-proline methyl ester.” for “of the N-(methoxycarbonyl)-cis-4-hydroxy-L-proline methyl ester.”

[5] = Enzyme screens for resolution of racemic N-(methoxycarbonyl)-4,4-dimethoxy-D,L-proline methyl ester (Example 8, comparative); settings: 0.100M racemate, 6 h or 17 h, 5.0 to 30 mg/mL enzyme, 25° C.; for conv. (percent conversion of the racemate): 0.25M potassium phosphate pH 7.0; for % ee (enantiomeric excess of the D-isomer): pH 7.0
Protocol: An aqueous solution (1.0 mL) containing 0.100M racemic N-(methoxycarbonyl)-4,4-dimethoxy-D,L-proline methyl ester in 0.25M potassium phosphate (pH 7.0) was mixed with 5.0 to 30 mg/mL of commercial enzyme preparations (listed in the table below) at 25° C. […] The ethyl acetate extract was then analyzed by chiral gas chromatography on a Chiraldex G-TA column (Advanced Separation Technologies, Inc., 50 m×0.32 mm ID) to determine the percent conversion of the racemate, and the enantiomeric excess of N-(methoxycarbonyl)-4,4-dimethoxy-D-prolinemethyl ester.

[6] = Enzyme screens for resolution of racemic N-(methoxycarbonyl)-4-keto-D,L-proline methyl ester (Example 1); settings: 0.100M racemate, 5.0 to 50 mg/mL enzyme, 25° C., optimum; for conv. (percent conversion of the racemate): 0.20M sodium succinate pH 6.0, 5 h or 0.20M sodium acetate pH 5.0, 24 h; for % ee (enantiomeric excess of the D-isomer; L-isomer with porcine liver esterase): pH 6.0, 5 h or pH 5.0, 24 h
Protocol: An aqueous solution (1.0 mL) containing 0.100M racemic N-(methoxycarbonyl)-4-keto-D,L-proline methyl ester in either 0.20M sodium succinate (pH 6.0) or 0.20M sodium acetate (pH 5.0) was mixed with 5.0 to 50 mg/mL of commercial enzyme preparations (listed in the table below) at 25° C. […] The dichloromethane extract was then analyzed by chiral gas chromatography on a Chiraldex G-TA column (Advanced Separation Technologies, Inc., 50 m×0.32 mm ID) to determine the percent conversion of the racemate, and the enantiomeric excess of the N-(methoxycarbonyl)-4-keto-D-proline methyl ester.

Row | Molecule | time to complete hydrolysis of the methyl ester [1] | initial reaction rate [1] | initial rate of methyl ester hydrolysis, times faster than THLP(MEBOC) ([1]; CALB) | initial rate of methyl ester hydrolysis, times faster than THLP(MEEC) as printed ([1]; CALB) | conv. (percent conversion of the racemate) [2] | % ee (enantiomeric excess of the D-isomer) [2] | conv. (percent conversion of the diastereomeric mixture) [3] | % de (diastereomeric excess of the cis-L-isomer) [3] | conv. (percent conversion of the diastereomeric mixture) [4] | % de (diastereomeric excess of the D-isomer, CHDP(MEMC)) [4] | conv. (percent conversion of the racemate) [5] | % ee (enantiomeric excess of the D-isomer) [5] | conv. (percent conversion of the racemate) [6] | % ee (enantiomeric excess of the D-isomer; L-isomer with porcine liver esterase) [6]
1 | CCOC(=O)N1C[C@H](O)C[C@H]1C(=O)OC [THLP(MEEC), N-(ethoxycarbonyl)-trans-4-hydroxy-L-proline methyl ester] | 2 h | 18.7 micromoles/h/mg enzyme catalyst | ~1.7 times | approximately 3.3 times |  |  |  |  |  |  |  |  |  | 
2 | COC(=O)[C@@H]1C[C@@H](O)CN1C(=O)OC(C)(C)C [THLP(MEBOC), N-(tert-butoxycarbonyl)-trans-4-hydroxy-L-proline methyl ester] | 6 h | 3.3 micromoles/h/mg enzyme catalyst |  |  |  |  |  |  |  |  |  |  |  | 
3 | protease (Chirazyme P1): commercial enzyme preparation, source Bacillus licheniformis (protein, UniProt P00780 106-379, looked up) Subtilisin Carlsberg: AQTVPYGIPLIKADKVQAQGFKGANVKVAVLDTGIQASHPDLNVVGGASFVAGEAYNTDGNGHGTHVAGTVAALDNTTGVLGVAPSVSLYAVKVLNSSGSGSYSGIVSGIEWATTNGMDVINMSLGGASGSTAMKQAVDNAYAKGVVVVAAAGNSGSSGNTNTIGYPAKYDSVIAVGAVDSNSNRASFSSVGAELEVMAPGAGVYSTYPTNTYATLNGTSMASPHVAGAAALILSKHPNLSASQVRNRLSSTATYLGSSFYYGKGLINVEAAAQ |  |  |  |  | 43% | 37% | 25% | 31% | 28% | 26% | 44% | 22% | 54% | 65%
4 | protease, trypsin bovine pancreas: commercial trypsin, source bovine pancreas (protein, UniProt P00760 24-246, looked up) Serine protease 1: IVGGYTCGANTVPYQVSLNSGYHFCGGSLINSQWVVSAAHCYKSGIQVRLGEDNINVVEGNEQFISASKSIVHPSYNSNTLNNDIMLIKLKSAASLNSRVASISLPTSCASAGTQCLISGWGNTKSSGTSYPDVLKCLKAPILSDSSCKSAYPGQITSNMFCAGYLEGGKDSCQGDSGGPVVCSGKLQGIVSWGSGCAQKNKPGVYTKVCNYVSWIKQTIASN |  |  |  |  | 0% | 0% | 0% | 0% | 0% | 0% | 0% | 0% | 0% | 0%
5 | lipase (Chirazyme L7): commercial enzyme preparation, source porcine pancreas (protein, UniProt P00591 1-450, looked up) Pancreatic triacylglycerol …: SEVCFPRLGCFSDDAPWAGIVQRPLKILPWSPKDVDTRFLLYTNQNQNNYQELVADPSTITNSNFRMDRKTRFIIHGFIDKGEEDWLSNICKNLFKVESVNCICVDWKGGSRTGYTQASQNIRIVGAEVAYFVEVLKSSLGYSPSNVHVIGHSLGSHAAGEAGRRTNGTIERITGLDPAEPCFQGTPELVRLDPSDAKFVDVIHTDAAPIIPNLGFGMSQTVGHLDFFPNGGKQMPGCQKNILSQIVDIDGIWEGTRDFVACNHLRSYKYYADSILNPDGFAGFPCDSYNVFTANKCFPCPSEGCPQMGHYADRFPGKTNGVSQVFYLNTGDASNFARWRYKVSVTLSGKKVTGHILVSLFGNEGNSRQYEIYKGTLQPDNTHSDEFDSDVEVGDLQKVKFIWYNNNVINPTLPRVGASKITVERNDGKVYDFCSQETVREEVLLTLNPC |  |  |  |  | 0% | 0% | 0% | 0% | 0% | 0% | 10% | 0% | 0% | 0%
